Patent US20100255578A1

How the values were obtained:
H296-H271 [1] = assay: ELISA; H296-H271 coated at 9 ug/mL; HRP-labeled FNH3-8, ABTS; blank subtracted
H271-H296 = assay: ELISA; H271-H296 coated at 14 ug/mL; HRP-labeled FNH3-8, ABTS; blank subtracted
H296-H271 [2] = assay: ELISA; H296-H271 coated at 11 ug/mL; HRP-labeled FNH3-8, ABTS; blank subtracted
H296-H296-HT [3] = assay: ELISA; H296-H296-HT coated at 1 ug/mL; HRP-labeled FNH3-8, ABTS; blank subtracted
H296-H296-HT [4] = assay: ELISA; H296-H296-HT coated at 2 ug/mL; HRP-labeled FNH3-8, ABTS; blank subtracted
H296-H296-HT [5] = assay: ELISA; H296-H296-HT coated at 3 ug/mL; HRP-labeled FNH3-8, ABTS; blank subtracted
H296-H296-HT [6] = assay: ELISA; H296-H296-HT coated at 4 ug/mL; HRP-labeled FNH3-8, ABTS; blank subtracted
[7] = biological target: H296-H296 (modified fibronectin fragment in which two H-296's are connected); assay: ELISA as in Example 34; H296-H296 coated at 1.563 ug/mL in PBS; HRP-labeled FNH3-8
H296-H296-HT [8] = assay: ELISA; H296-H296-HT coated at 10 ug/mL; HRP-labeled FNH3-8, ABTS; blank subtracted
H296-H296-HT [9] = assay: ELISA; H296-H296-HT coated at 25 ug/mL; HRP-labeled FNH3-8, ABTS; blank subtracted
H296-H296-H296-HT [10] = assay: ELISA; H296-H296-H296-HT coated at 1 ug/mL; HRP-labeled FNH3-8, ABTS; blank subtracted
H296-H296-H296-HT [11] = assay: ELISA; H296-H296-H296-HT coated at 3 ug/mL; HRP-labeled FNH3-8, ABTS; blank subtracted
H296-H296-H296-HT [12] = assay: ELISA; H296-H296-H296-HT coated at 10 ug/mL; HRP-labeled FNH3-8, ABTS; blank subtracted
[13] = biological target: H-296, a polypeptide comprising a heparin binding domain and a CS-1 domain of fibronectin (Homo sapiens (Human)) (UniProt P02751); assay: ELISA; H-296 coated at 25 ug/mL in 0.2 M acetate buffer pH 4.4; HRP-labeled FNH3-8, ABTS
[14] = biological target: H-296, a polypeptide comprising a heparin binding domain and a CS-1 domain of fibronectin (Homo sapiens (Human)) (UniProt P02751); assay: ELISA; H-296 coated at 25 ug/mL in 0.2 M acetate buffer pH 5.0; HRP-labeled FNH3-8, ABTS
[15] = biological target: H-296, a polypeptide comprising a heparin binding domain and a CS-1 domain of fibronectin (Homo sapiens (Human)) (UniProt P02751); assay: ELISA; H-296 coated at 25 ug/mL in 0.2 M acetate buffer pH 5.6; HRP-labeled FNH3-8, ABTS
[16] = biological target: H-296, a polypeptide comprising a heparin binding domain and a CS-1 domain of fibronectin (Homo sapiens (Human)) (UniProt P02751); assay: ELISA; H-296 coated at 50 ug/mL in 0.2 M acetate buffer pH 4.4; HRP-labeled FNH3-8, ABTS
[17] = biological target: H-296, a polypeptide comprising a heparin binding domain and a CS-1 domain of fibronectin (Homo sapiens (Human)) (UniProt P02751); assay: ELISA; H-296 coated at 50 ug/mL in 0.2 M acetate buffer pH 5.0; HRP-labeled FNH3-8, ABTS
[18] = biological target: H-296, a polypeptide comprising a heparin binding domain and a CS-1 domain of fibronectin (Homo sapiens (Human)) (UniProt P02751); assay: ELISA; H-296 coated at 25 ug/mL in 0.2 M phosphate buffer pH 6.2; HRP-labeled FNH3-8, ABTS
[19] = biological target: H-296, a polypeptide comprising a heparin binding domain and a CS-1 domain of fibronectin (Homo sapiens (Human)) (UniProt P02751); assay: ELISA; H-296 coated at 25 ug/mL in 0.2 M phosphate buffer pH 6.8; HRP-labeled FNH3-8, ABTS
[20] = biological target: H-296, a polypeptide comprising a heparin binding domain and a CS-1 domain of fibronectin (Homo sapiens (Human)) (UniProt P02751); assay: ELISA; H-296 coated at 50 ug/mL in 0.2 M phosphate buffer pH 6.2; HRP-labeled FNH3-8, ABTS
[21] = biological target: H-296, a polypeptide comprising a heparin binding domain and a CS-1 domain of fibronectin (Homo sapiens (Human)) (UniProt P02751); assay: ELISA; H-296 coated at 50 ug/mL in 0.2 M phosphate buffer pH 6.8; HRP-labeled FNH3-8, ABTS
[22] = biological target: H-296, a polypeptide comprising a heparin binding domain and a CS-1 domain of fibronectin (Homo sapiens (Human)) (UniProt P02751); assay: ELISA; H-296 coated at 50 ug/mL in 0.2 M phosphate buffer pH 8.0; HRP-labeled FNH3-8, ABTS
[23] = biological target: H-296, a polypeptide comprising a heparin binding domain and a CS-1 domain of fibronectin (Homo sapiens (Human)) (UniProt P02751); assay: ELISA as in Example 34; H-296 coated at 25 ug/mL in pH 5.6 acetate buffer; HRP-labeled FNH3-8
[24] = biological target: H-296, a polypeptide comprising a heparin binding domain and a CS-1 domain of fibronectin (Homo sapiens (Human)) (UniProt P02751); assay: ELISA as in Example 34; H-296 coated at 12.5 ug/mL in pH 5.6 acetate buffer; HRP-labeled FNH3-8
[25] = biological target: H-296, a polypeptide comprising a heparin binding domain and a CS-1 domain of fibronectin (Homo sapiens (Human)) (UniProt P02751); assay: ELISA as in Example 34; H-296 coated at 6.25 ug/mL in pH 5.6 acetate buffer; HRP-labeled FNH3-8

Chain of H296-H296-H296-HT (chain, as listed by the source limits assumed): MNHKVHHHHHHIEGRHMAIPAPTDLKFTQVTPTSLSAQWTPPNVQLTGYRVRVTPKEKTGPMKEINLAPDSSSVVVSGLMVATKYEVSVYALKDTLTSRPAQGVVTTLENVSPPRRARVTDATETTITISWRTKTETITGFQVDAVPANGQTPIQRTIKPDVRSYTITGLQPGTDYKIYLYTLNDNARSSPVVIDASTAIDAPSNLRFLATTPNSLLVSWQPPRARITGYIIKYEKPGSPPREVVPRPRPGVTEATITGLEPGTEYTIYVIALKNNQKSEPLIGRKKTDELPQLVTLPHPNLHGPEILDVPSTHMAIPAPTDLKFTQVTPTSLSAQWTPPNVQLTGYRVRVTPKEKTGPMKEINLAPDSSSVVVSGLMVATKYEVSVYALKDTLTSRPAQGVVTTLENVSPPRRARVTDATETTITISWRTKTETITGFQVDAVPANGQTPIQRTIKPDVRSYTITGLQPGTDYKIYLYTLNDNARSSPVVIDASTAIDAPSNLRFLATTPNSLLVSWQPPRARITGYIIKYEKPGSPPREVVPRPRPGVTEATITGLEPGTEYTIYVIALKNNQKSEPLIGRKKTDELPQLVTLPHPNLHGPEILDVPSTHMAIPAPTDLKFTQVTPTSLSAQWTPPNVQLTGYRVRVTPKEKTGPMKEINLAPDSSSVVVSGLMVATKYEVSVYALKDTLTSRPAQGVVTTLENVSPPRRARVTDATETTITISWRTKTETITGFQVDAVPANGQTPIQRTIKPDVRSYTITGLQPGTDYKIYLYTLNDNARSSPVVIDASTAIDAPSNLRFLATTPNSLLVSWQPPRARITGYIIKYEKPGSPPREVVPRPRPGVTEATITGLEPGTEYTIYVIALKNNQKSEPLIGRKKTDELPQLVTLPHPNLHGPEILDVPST
Chain of H296-H296-HT (chain, as listed by the source limits assumed): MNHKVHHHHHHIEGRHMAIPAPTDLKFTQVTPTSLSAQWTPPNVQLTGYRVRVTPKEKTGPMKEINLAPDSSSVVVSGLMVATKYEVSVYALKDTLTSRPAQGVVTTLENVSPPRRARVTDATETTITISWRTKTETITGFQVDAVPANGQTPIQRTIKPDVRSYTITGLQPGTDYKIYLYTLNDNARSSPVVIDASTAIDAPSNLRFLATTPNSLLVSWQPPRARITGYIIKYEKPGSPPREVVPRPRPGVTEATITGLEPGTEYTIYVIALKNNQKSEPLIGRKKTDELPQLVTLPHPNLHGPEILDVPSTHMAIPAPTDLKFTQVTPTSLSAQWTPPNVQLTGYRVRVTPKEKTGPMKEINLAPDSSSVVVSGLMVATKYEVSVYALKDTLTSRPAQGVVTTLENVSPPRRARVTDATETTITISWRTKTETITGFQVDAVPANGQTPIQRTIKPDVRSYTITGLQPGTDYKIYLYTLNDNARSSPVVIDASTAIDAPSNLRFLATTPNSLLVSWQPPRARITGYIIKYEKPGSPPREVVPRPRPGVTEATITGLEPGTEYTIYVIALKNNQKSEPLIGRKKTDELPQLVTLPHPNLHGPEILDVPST
Chain of H296-H271 (chain, as listed by the source limits assumed): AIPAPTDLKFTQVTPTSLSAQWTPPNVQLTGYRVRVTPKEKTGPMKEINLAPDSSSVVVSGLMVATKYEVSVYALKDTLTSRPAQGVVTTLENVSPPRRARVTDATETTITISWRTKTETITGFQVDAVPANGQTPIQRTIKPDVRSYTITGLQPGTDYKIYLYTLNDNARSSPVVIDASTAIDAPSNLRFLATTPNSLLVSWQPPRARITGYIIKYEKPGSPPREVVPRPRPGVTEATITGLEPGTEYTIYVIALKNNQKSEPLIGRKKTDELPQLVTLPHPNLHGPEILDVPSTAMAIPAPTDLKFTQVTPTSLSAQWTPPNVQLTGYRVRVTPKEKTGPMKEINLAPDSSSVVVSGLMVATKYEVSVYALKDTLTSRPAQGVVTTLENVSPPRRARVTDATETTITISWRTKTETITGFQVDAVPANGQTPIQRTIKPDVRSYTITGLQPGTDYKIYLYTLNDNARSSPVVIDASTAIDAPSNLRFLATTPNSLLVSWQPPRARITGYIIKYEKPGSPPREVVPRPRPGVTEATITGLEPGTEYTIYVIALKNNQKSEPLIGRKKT
Chain of H271-H296 (chain, as listed by the source limits assumed): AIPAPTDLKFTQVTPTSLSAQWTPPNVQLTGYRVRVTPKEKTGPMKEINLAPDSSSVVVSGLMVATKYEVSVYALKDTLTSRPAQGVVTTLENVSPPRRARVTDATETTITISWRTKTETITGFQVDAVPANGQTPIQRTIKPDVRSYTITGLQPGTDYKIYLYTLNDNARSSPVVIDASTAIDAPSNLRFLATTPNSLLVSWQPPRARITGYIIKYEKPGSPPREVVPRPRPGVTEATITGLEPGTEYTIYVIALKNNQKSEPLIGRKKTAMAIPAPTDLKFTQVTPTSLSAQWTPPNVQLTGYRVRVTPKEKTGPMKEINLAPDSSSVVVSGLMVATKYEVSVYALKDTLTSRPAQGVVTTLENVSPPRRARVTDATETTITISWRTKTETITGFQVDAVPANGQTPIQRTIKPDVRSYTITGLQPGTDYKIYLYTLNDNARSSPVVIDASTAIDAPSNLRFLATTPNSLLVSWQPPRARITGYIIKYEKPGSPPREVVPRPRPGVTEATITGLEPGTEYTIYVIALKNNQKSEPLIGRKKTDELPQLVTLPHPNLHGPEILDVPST

FNH3-8 antibody (manufactured by TAKARA BIO INC.) labeled with HRP
405 nm (Found Value - Blank) (H296-H271 [1]): 0.56 | 405 nm (Found Value - Blank) (H271-H296): 0.605 | 405 nm (Found Value - Blank) (H296-H271 [2]): 0.561 | 405 nm (Found Value - Blank) (H296-H296-HT [3]): 0.186 | 405 nm (Found Value - Blank) (H296-H296-HT [4]): 0.54 | 405 nm (Found Value - Blank) (H296-H296-HT [5]): 0.742 | 405 nm (Found Value - Blank) (H296-H296-HT [6]): 0.843 | absorbance at 405 nm [7]: 0.732 | 405 nm (Found Value - Blank) (H296-H296-HT [8]): 0.976 | 405 nm (Found Value - Blank) (H296-H296-HT [9]): 0.965 | 405 nm (Found Value - Blank) (H296-H296-H296-HT [10]): 0.261 | 405 nm (Found Value - Blank) (H296-H296-H296-HT [11]): 0.743 | 405 nm (Found Value - Blank) (H296-H296-H296-HT [12]): 0.924 | absorbance at 405 nm [13]: 0.428 | absorbance at 405 nm [14]: 0.392 | absorbance at 405 nm [15]: 0.475 | absorbance at 405 nm [16]: 0.379 | absorbance at 405 nm [17]: 0.451 | absorbance at 405 nm [18]: 0.131 | absorbance at 405 nm [19]: 0.075 | absorbance at 405 nm [20]: 0.244 | absorbance at 405 nm [21]: 0.167 | absorbance at 405 nm [22]: 0.174 | absorbance at 405 nm [23]: 0.224 | absorbance at 405 nm [24]: 0.277 | absorbance at 405 nm [25]: 0.221
